Here are results for 20 molecules from PMC8287928.

Data set [1] deals with SARS-CoV-2 spike S1 subunit (SARS-CoV-2 (wild type), UniProt P0DTC2 16-685). As to conditions: protein: commercial; tags: His.
A further data set concerns the target SARS-CoV-1 RBD (SARS-CoV-1, UniProt P59594 306-527). The conditions noted are these: protein: recombinant; tags: C-terminal His; label: 5'-32P; hairpin.
In the next data set the target is MERS-CoV RBD (MERS-CoV, UniProt K9N5Q8 367-588). As to conditions: protein: recombinant; tags: C-terminal His; label: 5'-32P; hairpin.
For data set [2], the target named is SARS-CoV-1 full spike protein (SARS-CoV-1, UniProt P59594 14-1195). As to conditions: protein: commercial; chain copies: 3; label: 5'-32P; hairpin.
The target of another data set is Human alpha-thrombin (human, UniProt P00734;P00734 315-363;364-622).
The target of a further data set is SARS-CoV-2 spike RBD (SARS-CoV-2, UniProt P0DTC2 319-541). The conditions noted are these: protein: commercial.
A further data set addresses HCoV-229E RBD (HCoV-229E, UniProt P15423 293-435). Briefly: dot blot (filter binding); 50 nM protein. The conditions noted are these: protein: recombinant; tags: C-terminal His; hairpin.
The target of data set [3] is SARS-CoV-2 spike S1 subunit (SARS-CoV-2 (wild type), UniProt P0DTC2 16-685). As to conditions: protein: commercial; tags: His. The source holds these as a separate data set.

Sequence of HCoV-229E RBD (P15423 293-435): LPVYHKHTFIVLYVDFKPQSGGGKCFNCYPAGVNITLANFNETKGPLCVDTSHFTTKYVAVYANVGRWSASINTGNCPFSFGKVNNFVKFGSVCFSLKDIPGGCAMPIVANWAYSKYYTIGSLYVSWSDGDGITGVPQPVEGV
Sequence of MERS-CoV RBD (K9N5Q8 367-588): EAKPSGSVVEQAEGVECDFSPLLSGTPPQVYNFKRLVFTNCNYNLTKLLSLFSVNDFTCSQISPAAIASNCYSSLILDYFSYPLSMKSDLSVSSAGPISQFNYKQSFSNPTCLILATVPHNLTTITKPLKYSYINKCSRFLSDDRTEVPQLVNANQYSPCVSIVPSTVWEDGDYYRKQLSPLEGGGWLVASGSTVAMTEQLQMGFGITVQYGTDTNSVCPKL

B1: MSA6 (structured_DNA)
DNA: TTACGTCAAGGTGTCACTCCTCGGGGGGGTTTGGCACTGGGCCTGGCAGTACCGGGTCGCGAAGCATCTCTTTGGCGTG
Take B1: the affinity in data set [1], expressed as Kd, was 16.2 ± 2.3 nM. As for TCCACGGGTTTGGCGTCGGGCCTGGCGGGGGGATAGTGCGGTGGA (structured_DNA) [MSA5-T1], the Kd in data set [1] is 8.4 nM. Regarding CTCCACGGGTTTGGCGTCGGGCCTGGCGGGGGGATAGTGCGGTGGAG (structured_DNA) [MSA5-T3], in data set [1], the affinity, expressed as Kd, was 7.3 nM. As to TTCCGGTTAATTTATGCTCTACCCGTCCACCTACCGGAA (structured_DNA) [MSA1-T2], the binding result in data set [1] is listed as “binds”.

B2: MSA5 (structured_DNA)
DNA: TTACGTCAAGGTGTCACTCCACGGGTTTGGCGTCGGGCCTGGCGGGGGGATAGTGCGGTGGAAGCATCTCTTTGGCGTG
Take B2: the binding result (in the data set with SARS-CoV-1 RBD; with MERS-CoV RBD; in data set [2]; in the data set with Human alpha-thrombin; with HCoV-229E RBD) was “no binding” each time. The Kd worked out at 2.7 ± 0.2 nM in data set [1] and 4 ± 0.6 nM with SARS-CoV-2 spike RBD. In turn, TCCACGGCGTCGGGCCTGGCGGGGGGATAGTGCGGTGGA (structured_DNA) [MSA5-T7] showed a Kd in data set [1] of 22.8 nM.

With ACAGCGTCTGGTTGGTTTGGTTGGATCTTCGATCGCTGT (structured_DNA) [MSA3-T2], the Kd in data set [1] was 1.9 nM. Consider CTTCCACGGGTTTGGCGTCGGGCCTGGCGGGGGGATAGTGCGGTGGAAG (structured_DNA) [MSA5-T4], for which, in data set [1], the equilibrium dissociation constant (Kd) is 6.3 nM. Still for that read-out and setting: the figure for TCCACGGGTTTGCTGGCGGGGGGATAGTGCGGTGGA (structured_DNA) [MSA5-T6] is 264 nM.

B3: MSA9 (structured_DNA)
DNA: TTACGTCAAGGTGTCACTCCTTCGTGTGGGTGGGGTCCTAACTTTCCTGTCGGGGTCGGGGAAGCATCTCTTTGGCGTG
B3 came in with a Kd in data set [1] of 37.4 ± 1.6 nM.

B4: MSA1 (structured_DNA)
DNA: TTACGTCAAGGTGTCACTCCCACTTTCCGGTTAATTTATGCTCTACCCGTCCACCTACCGGAAGCATCTCTTTGGCGTG
Turning to B4, the binding result in the data set with Human alpha-thrombin and with HCoV-229E RBD was “no binding” throughout. For the same molecule, in data set [3], binding was put at a Kd of 1.8 ± 0.4 nM.

B5: MSA8 (structured_DNA)
DNA: TTACGTCAAGGTGTCACTCCATGTGGGTGGGGGTCATTCTTCAGTGTCGGGAGGGGGTGGAAGCATCTCTTTGGCGTG
On to B5, for which, in data set [1], the Kd turned out to be 23 ± 1 nM. In data set [1], TCCGGTTAATTTATGCTCTACCCGTCCACCTACCGGA (structured_DNA) [MSA1-T3] showed a Kd of 3.1 nM.

B6: MSA7 (structured_DNA)
DNA: TTACGTCAAGGTGTCACTCCTGGCTGTGGGGTTCGGGGTCACTATTTGTCGGGAGGGGAGGAAGCATCTCTTTGGCGTG
In data set [1], B6 showed a Kd of 76.2 ± 10.5 nM.

B7: MSA3 (structured_DNA)
DNA: TTACGTCAAGGTGTCACTCCTACAGCGTCTGGTTGGTTTGGTTGGATCTTCGATCGCTGTGAAGCATCTCTTTGGCGTG
For the molecule B7, in data set [1], binding was put at a Kd of 1.9 ± 0.1 nM.

B8: MSA2 (structured_DNA)
DNA: TTACGTCAAGGTGTCACTCCTCAGTGGGAGGGGGTCCATGTCTTGTCGGGGTCGGGGGTGGAAGCATCTCTTTGGCGTG
Take B8: the dissociation constant Kd in data set [1] stood at 9.2 ± 0.2 nM.

B9: MSA4 (structured_DNA)
DNA: TTACGTCAAGGTGTCACTCCTGTGGGCGGGGGCGGTTGATTGTATTACTGTCGGGAGGGGGAAGCATCTCTTTGGCGTG
For B9, in data set [1], binding was put at a Kd of 27.6 ± 0.6 nM. The same measure, in the same setting: the figure for ACGGGTTTGGCGTCGGGCCTGGCGGGGGGATAGTGCGGT (structured_DNA) [MSA5-T2] is 10.1 nM.

B10: MSA10 (structured_DNA)
DNA: TTACGTCAAGGTGTCACTCCGCGGGTTTGGCTCCGGGCCTGGCGTTGCGGTCTGCTCCCCGAAGCATCTCTTTGGCGTG
For the molecule B10, binding in data set [1] was characterised by a dissociation constant (Kd) of 134 ± 21.3 nM. With CCGGTTAATTTATGCTCTACCCGTCCACCTACCGG (structured_DNA) [MSA1-T4], the “fold Kd increase” value in data set [1] was 36 fold Kd increase vs MSA1-T3.
